Data taken from US20260002156.

B1: ADAM10 on the surface of HCC cells (HepG2) (protein)
chain: TTSAEKNTCQLYIQTDHLFFKYYGTREAVIAQISSHVKAIDTIYQTTDFSGIRNISFMVKRIRINTTADEKDPTNPFRFPNIGVEKFLELNSEQNHDDYCLAYVFTDRDFDDGVLGLAWVGAPSGSSGGICEKSKLYSDGKKKSLNTGIITVQNYGSHVPPKVSHITFAHEVGHNFGSPHDSGTECTPGESKNLGQKENGNYIMYARATSGDKLNNNKFSLCSIRNISQVLEKKRNNCFVESGQPICGNGMVEQGEECDCGYSDQCKDECCFDANQPEGRKCKLKPGKQCSPSQGPCCTAQCAFKSKSEKCRDDSDCAREGICNGFTALCPASDPKPNFTDCNRHTQVCINGQCAGSICEKYGLEECTCASSDGKDDKELCHVCCMKKMDPSTCASTGSVQWSRHFSGRTITLQPGSPCNDFRGYCDVFMRCRLVDADGPLARLKKAIFSPELYENIAEWIVAHWWAVLLMGIALIMLMAGFIKICSVHTPSSNPKLPPPKPLPGTLKRRRPPQPIQQPQRQRPRESYQMGHMRR
B2: recombinant human ADAM10 (rhADAM10) (protein)
chain: TTSAEKNTCQLYIQTDHLFFKYYGTREAVIAQISSHVKAIDTIYQTTDFSGIRNISFMVKRIRINTTADEKDPTNPFRFPNIGVEKFLELNSEQNHDDYCLAYVFTDRDFDDGVLGLAWVGAPSGSSGGICEKSKLYSDGKKKSLNTGIITVQNYGSHVPPKVSHITFAHEVGHNFGSPHDSGTECTPGESKNLGQKENGNYIMYARATSGDKLNNNKFSLCSIRNISQVLEKKRNNCFVESGQPICGNGMVEQGEECDCGYSDQCKDECCFDANQPEGRKCKLKPGKQCSPSQGPCCTAQCAFKSKSEKCRDDSDCAREGICNGFTALCPASDPKPNFTDCNRHTQVCINGQCAGSICEKYGLEECTCASSDGKDDKELCHVCCMKKMDPSTCASTGSVQWSRHFSGRTITLQPGSPCNDFRGYCDVFMRCRLVDADGPLARLKKAIFSPELYENIAE

Target: T1, fluorogenic peptide substrate to ADAM10 (Mca-PLAQAV-Dpa-RSSR)
T1 chain: PLAQAVXRSSR

Protein	fluorescence intensity (fluorogenic peptide cleavage assay)
B1	after incubation with HCC cells, the fluorogenic peptide significantly increased the fluorescence intensity, stronger than the recombinant human ADAM10 (rhADAM10) which serves as a positive control
B2	the recombinant human ADAM10 (rhADAM10) which serves as a positive control
